Target: RsPGs (polygalacturonases from Rhizoctonia solani) (Rhizoctonia solani)

OsPGIP2^L233F, recombinant His-tagged (natural protein)
reduction of RsPG activity, reduced sugar assay (polygalacturonic acid, 50 mM sodium citrate pH 5.0, 37 °C, 1 h): 40.6%

Source: publication PMC6663954
